From IntAct's records for PubMed 31515488

B1: Peroxisomal bifunctional enzyme (Homo sapiens), Q08426 (parent)
chain: MAEYTRLHNALALIRLRNPPVNAISTTLLRDIKEGLQKAVIDHTIKAIVICGAEGKFSAGADIRGFSAPRTFGLTLGHVVDEIQRNEKPVVAAIQGMAFGGGLELALGCHYRIAHAEAQVGLPEVTLGLLPGARGTQLLPRLTGVPAALDLITSGRRILADEALKLGILDKVVNSDPVEEAIRFAQRVSDQPLESRRLCNKPIQSLPNMDSIFSEALLKMRRQHPGCLAQEACVRAVQAAVQYPYEVGIKKEEELFLYLLQSGQARALQYAFFAERKANKWSTPSGASWKTASARPVSSVGVVGLGTMGRGIVISFARARIPVIAVDSDKNQLATANKMITSVLEKEASKMQQSGHPWSGPKPRLTSSVKELGGVDLVIEAVFEEMSLKKQVFAELSAVCKPEAFLCTNTSALDVDEIASSTDRPHLVIGTHFFSPAHVMKLLEVIPSQYSSPTTIATVMNLSKKIKKIGVVVGNCFGFVGNRMLNPYYNQAYFLLEEGSKPEEVDQVLEEFGFKMGPFRVSDLAGLDVGWKSRKGQGLTGPTLLPGTPARKRGNRRYCPIPDVLCELGRFGQKTGKGWYQYDKPLGRIHKPDPWLSKFLSRYRKTHHIEPRTISQDEILERCLYSLINEAFRILGEGIAASPEHIDVVYLHGYGWPRHKGGPMFYASTVGLPTVLEKLQKYYRQNPDIPQLEPSDYLKKLASQGNPPLKEWQSLAGSPSSKL
partner: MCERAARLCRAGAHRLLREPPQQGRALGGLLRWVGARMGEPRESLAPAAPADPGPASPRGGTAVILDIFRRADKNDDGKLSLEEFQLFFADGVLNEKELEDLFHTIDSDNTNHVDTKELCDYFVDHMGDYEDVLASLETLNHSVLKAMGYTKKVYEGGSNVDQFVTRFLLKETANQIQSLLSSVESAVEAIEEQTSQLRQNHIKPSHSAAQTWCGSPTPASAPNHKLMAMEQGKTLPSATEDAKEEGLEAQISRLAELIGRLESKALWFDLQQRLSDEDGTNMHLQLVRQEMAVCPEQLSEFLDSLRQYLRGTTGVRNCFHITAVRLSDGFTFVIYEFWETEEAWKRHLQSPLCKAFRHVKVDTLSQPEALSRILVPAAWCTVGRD
B2: Low-density lipoprotein receptor class A domain-containing protein 1 (Homo sapiens), Q5T700 (parent)
chain: MNKVFPQGENGYTAAESKAHPGGEAGGGHLCCSRRGACLSASLLLLLATVAALIALVTILGLPSCTPGAQACITLTNRTGFLCHDQRSCIPASGVCDGVRTCTHGEDEDESLCRDVPQSLPHFLVAHCGDPASWIYSDQKCDGTNNCGDCSDELSPVTVCPPCGPGWWRCPSTFFKYCDCIPRHLCRDHVQHCSDWSDEYACPGP
partner: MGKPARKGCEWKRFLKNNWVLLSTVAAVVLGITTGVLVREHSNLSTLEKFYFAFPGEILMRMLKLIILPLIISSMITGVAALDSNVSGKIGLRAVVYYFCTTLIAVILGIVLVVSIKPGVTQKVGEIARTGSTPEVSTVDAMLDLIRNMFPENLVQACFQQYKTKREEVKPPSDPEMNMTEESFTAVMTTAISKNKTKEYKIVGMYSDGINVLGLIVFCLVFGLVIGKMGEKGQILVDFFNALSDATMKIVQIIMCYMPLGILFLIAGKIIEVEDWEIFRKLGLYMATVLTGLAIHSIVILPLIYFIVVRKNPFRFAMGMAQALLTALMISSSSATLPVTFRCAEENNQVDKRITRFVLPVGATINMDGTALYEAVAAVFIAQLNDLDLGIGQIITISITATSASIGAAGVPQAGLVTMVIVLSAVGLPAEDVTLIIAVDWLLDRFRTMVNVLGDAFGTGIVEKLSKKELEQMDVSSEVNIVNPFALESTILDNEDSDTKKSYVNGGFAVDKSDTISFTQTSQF
B3: Endothelial transcription factor GATA-2 (Homo sapiens), P23769 (parent)
chain: MEVAPEQPRWMAHPAVLNAQHPDSHHPGLAHNYMEPAQLLPPDEVDVFFNHLDSQGNPYYANPAHARARVSYSPAHARLTGGQMCRPHLLHSPGLPWLDGGKAALSAAAAHHHNPWTVSPFSKTPLHPSAAGGPGGPLSVYPGAGGGSGGGSGSSVASLTPTAAHSGSHLFGFPPTPPKEVSPDPSTTGAASPASSSAGGSAARGEDKDGVKYQVSLTESMKMESGSPLRPGLATMGTQPATHHPIPTYPSYVPAAAHDYSSGLFHPGGFLGGPASSFTPKQRSKARSCSEGRECVNCGATATPLWRRDGTGHYLCNACGLYHKMNGQNRPLIKPKRRLSAARRAGTCCANCQTTTTTLWRRNANGDPVCNACGLYYKLHNVNRPLTMKKEGIQTRNRKMSNKSKKSKKGAECFEELSKCMQEKSSPFSAAALAGHMAPVGHLPPFSHSGHILPTPTPIHPSSSLSFGHPHPSSMVTAMG
B4: Tuftelin-interacting protein 11 (Homo sapiens), Q9UBB9 (parent)
chain: MSLSHLYRDGEGRIDDDDDERENFEITDWDLQNEFNPNRQRHWQTKEEATYGVWAERDSDDERPSFGGKRARDYSAPVNFISAGLKKGAAEEAELEDSDDEEKPVKQDDFPKDFGPRKLKTGGNFKPSQKGFAGGTKSFMDFGSWERHTKGIGQKLLQKMGYVPGRGLGKNAQGIINPIEAKQRKGKGAVGAYGSERTTQSMQDFPVVDSEEEAEEEFQKELSQWRKDPSGSKKKPKYSYKTVEELKAKGRISKKLTAPQKELSQVKVIDMTGREQKVYYSYSQISHKHNVPDDGLPLQSQQLPQSGKEAKAPGFALPELEHNLQLLIDLTEQEIIQNDRQLQYERDMVVNLFHELEKMTEVLDHEERVISNLSKVLEMVEECERRMQPDCSNPLTLDECARIFETLQDKYYEEYRMSDRVDLAVAIVYPLMKEYFKEWDPLKDCTYGTEIISKWKSLLENDQLLSHGGQDLSADAFHRLIWEVWMPFVRNIVTQWQPRNCDPMVDFLDSWVHIIPVWILDNILDQLIFPKLQKEVENWNPLTDTVPIHSWIHPWLPLMQARLEPLYSPIRSKLSSALQKWHPSDSSAKLILQPWKDVFTPGSWEAFMVKNIVPKLGMCLGELVINPHQQHMDAFYWVIDWEGMISVSSLVGLLEKHFFPKWLQVLCSWLSNSPNYEEITKWYLGWKSMFSDQVLAHPSVKDKFNEALDIMNRAVSSNVGAYMQPGARENIAYLTHTERRKDFQYEAMQERREAENMAQRGIGVAASSVPMNFKDLIETKAEEHNIVFMPVIGKRHEGKQLYTFGRIVIYIDRGVVFVQGEKTWVPTSLQSLIDMAK
partner: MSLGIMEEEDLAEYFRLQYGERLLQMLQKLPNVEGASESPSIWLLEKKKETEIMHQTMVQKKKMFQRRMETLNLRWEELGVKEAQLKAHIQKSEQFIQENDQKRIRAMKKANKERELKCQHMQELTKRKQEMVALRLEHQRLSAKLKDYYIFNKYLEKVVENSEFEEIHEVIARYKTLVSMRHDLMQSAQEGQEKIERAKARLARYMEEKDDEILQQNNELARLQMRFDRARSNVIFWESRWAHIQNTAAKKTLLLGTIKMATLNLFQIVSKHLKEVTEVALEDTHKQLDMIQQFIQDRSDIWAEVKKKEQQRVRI

Variants of: B1
Conditions: with neca2_human NECAB2, Q7Z6G3

Row | Variant | effect of a mutation on the interaction
1 | I646T | disrupting interaction strength
2 | R483Q | disrupting interaction strength
3 | S703F | with no effect
4 | L715S | disrupting interaction strength

Variants of: B2
Conditions: with eaa3_human SLC1A1, P43005

Row | Variant | effect of a mutation on the interaction
5 | G105S | with no effect
6 | E108K | with no effect

Variants of: B3
Conditions: with fhl3_human FHL3, Q13643
Sequence of fhl3_human FHL3, Q13643 (Q13643 whole entry): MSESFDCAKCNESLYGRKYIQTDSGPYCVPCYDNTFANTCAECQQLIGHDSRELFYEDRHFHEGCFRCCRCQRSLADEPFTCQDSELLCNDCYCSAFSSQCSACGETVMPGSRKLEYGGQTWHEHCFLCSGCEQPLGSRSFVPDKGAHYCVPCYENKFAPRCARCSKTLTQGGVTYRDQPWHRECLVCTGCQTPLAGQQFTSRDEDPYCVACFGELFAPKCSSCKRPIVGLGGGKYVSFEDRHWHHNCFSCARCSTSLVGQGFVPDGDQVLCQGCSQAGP

Row | Variant | effect of a mutation on the interaction
7 | A164T | with no effect

Variants of: B3
Conditions: with psa3_human PSMA3, P25788
Sequence of psa3_human PSMA3, P25788 (P25788 whole entry): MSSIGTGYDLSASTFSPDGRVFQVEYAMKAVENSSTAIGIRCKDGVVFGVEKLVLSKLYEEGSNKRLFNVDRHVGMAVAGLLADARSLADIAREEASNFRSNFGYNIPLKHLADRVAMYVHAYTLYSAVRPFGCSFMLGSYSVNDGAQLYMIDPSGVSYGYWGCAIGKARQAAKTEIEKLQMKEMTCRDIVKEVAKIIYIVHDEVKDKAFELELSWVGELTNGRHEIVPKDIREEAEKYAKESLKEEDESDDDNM

Row | Variant | effect of a mutation on the interaction
8 | A164T | with no effect

Variants of: B3
Conditions: with tri23_human TRIM23, P36406
Sequence of tri23_human TRIM23, P36406 (P36406 whole entry): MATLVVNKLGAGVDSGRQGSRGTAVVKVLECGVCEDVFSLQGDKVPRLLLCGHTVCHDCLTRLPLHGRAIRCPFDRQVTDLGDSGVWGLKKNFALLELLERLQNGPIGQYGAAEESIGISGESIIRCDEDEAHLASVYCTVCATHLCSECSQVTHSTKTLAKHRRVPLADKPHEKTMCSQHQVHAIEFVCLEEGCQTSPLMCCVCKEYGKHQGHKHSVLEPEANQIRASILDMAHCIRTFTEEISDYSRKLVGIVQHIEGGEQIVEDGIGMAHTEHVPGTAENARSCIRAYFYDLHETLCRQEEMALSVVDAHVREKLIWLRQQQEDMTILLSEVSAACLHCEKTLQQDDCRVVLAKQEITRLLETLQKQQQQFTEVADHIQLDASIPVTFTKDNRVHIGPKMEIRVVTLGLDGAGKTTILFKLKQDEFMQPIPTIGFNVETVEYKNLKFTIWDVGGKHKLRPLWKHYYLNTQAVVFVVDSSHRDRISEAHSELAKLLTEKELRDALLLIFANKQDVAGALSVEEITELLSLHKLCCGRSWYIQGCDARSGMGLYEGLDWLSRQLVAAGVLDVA

Row | Variant | effect of a mutation on the interaction
9 | A164T | with no effect

Variants of: B3
Conditions: with mdfi_human MDFI

Row | Variant | effect of a mutation on the interaction
10 | A164T | with no effect

Variants of: B4
Conditions: with ccd42_human CCDC42, Q96M95

Row | Variant | effect of a mutation on the interaction
11 | R8Q | with no effect
12 | S688L | with no effect
